According to paper PMC6737903, “The Hox gene Abdominal-B uses Doublesex^F as a cofactor to promote neuroblast apoptosis in the Drosophila central nervous system” (Development (Cambridge, England), 2019):

Target: T1, His-Dsx^CR (Dsx common region, aa residues 1-397) (Drosophila, UniProt P23023 1-397)
T1 construct: Doublesex (Dsx), Drosophila, region common to the male and female isoforms, aa residues 1-397; source: bacterially expressed (0.5 mM IPTG, 18°C, 2 h), cell lysate for the pulldown; purified and dialyzed for EMSA; not shown: His tag, N-terminal, kept
T1 sequence (P23023 1-397): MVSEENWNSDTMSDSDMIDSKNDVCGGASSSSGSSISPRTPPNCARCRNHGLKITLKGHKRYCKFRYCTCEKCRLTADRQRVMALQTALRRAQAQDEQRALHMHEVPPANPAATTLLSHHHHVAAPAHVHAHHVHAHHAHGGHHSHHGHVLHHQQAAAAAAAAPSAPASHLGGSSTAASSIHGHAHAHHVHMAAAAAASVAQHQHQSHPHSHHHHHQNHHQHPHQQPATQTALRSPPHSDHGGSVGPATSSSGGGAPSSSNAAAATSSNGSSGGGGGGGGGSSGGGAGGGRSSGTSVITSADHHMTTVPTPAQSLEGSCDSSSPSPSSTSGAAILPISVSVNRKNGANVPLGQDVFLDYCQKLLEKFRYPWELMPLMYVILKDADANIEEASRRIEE
Assay: pull-down; GST pulldown: GST-tagged AbdB proteins or GST alone as bait; bacterially expressed His-tagged Dsx proteins as input cell lysates; Western blot; three repetitions
Details: one partner purified

B1: GST-AbdB-N (truncated version of AbdB-r, aa residues 89-270) (domain or fragment)
chain: not shown
notes: Abdominal-B (AbdB), Drosophila, regulatory isoform AbdB-r, aa residues 89-270; printed length of AbdB-r by the limits: 270; numbers count on: the AbdB-r isoform; The results say that AbdB-N lacks the first 89 amino acids; the methods give aa residues 89-270; also called GST-tagged AbdB-N; source: bacterially expressed (0.5 mM IPTG, 18°C, 2 h); GST-tagged bait in the pulldown; used as protein (50 …)
B1: binds.
